Read-outs that look alike come from different tables or passages of the source.
Tests used:
[1] = test system: 17 kDa substrate containing the target cleavage site Glu-Asn-Leu-Tyr-Phe-Gln-Gly (SEQ ID NO: 5)
[2] = molecular target: 17 kDa substrate containing the target cleavage site Glu-Asn-Leu-Tyr-Phe-Gln-Gly (SEQ ID NO: 5); remark: listed apart in the source

Row | Molecule | specific activity for substrate cleavage [1] | specific activity for substrate cleavage [2] | substrate cleavage (SDS-PAGE) [2]
1 | TPSN (mutant 27 kDa NIa proteinase with Ser219 to Asn mutation, C-terminal His6 tag) | TPWT and TPSN have similar activity to each other and to the commercially available proteinase at all substrate concentrations tested |  | 
2 | commercially available 27 kDa NIa proteinase (GibcoBRL) (protein) GESLFKGPRDYNPISSTICHLTNESDGHTTSLYGIGFGPFIITNKHLFRRNNGTLLVQSLHGVFKVKNTTTLQQHLIDGRDMIIIRMPKDFPPFPQKLKFREPQREERICLVTTNFQTKSMSSMVSDTSCTFPSSDGIFWKHWIQTKDGQCGSPLVSTRDGFIVGIHSASNFTNTNNYFTSVPKNFMELLTNQEAQQWVSGWRLNADSVLWGGHKVFMSKPEEPFQPVKEATQLMNELVYSQ |  | TPWT and TPSN have similar activity to each other and to the commercially available proteinase at all substrate concentrations tested | produces a ˜15 kDa peptide when cleaved with commercially available 27 kDa NIa proteinase (GibcoBRL)
3 | TPWT (wild type 27 kDa NIa proteinase of tobacco etch virus, C-terminal His6 tag) (protein) MAESGESLFKGPRDYNPISSTICHLTNESDGHTTSLYGIGFGPFIITNKHLFRRNNGTLLVQSLHGVFKVKNTTTLQQHLIDGRDMIIIRMPKDFPPFPQKLKFREPQREERICLVTTNFQTKSMSSMVSDTSCTFPSSDGIFWKHWIQTKDGQCGSPLVSTRDGFIVGIHSASNFTNTNNYFTSVPKNFMELLTNQEAQQWVSGWRLNADSVLWGGHKVFMSKPEEPFQPVKEATQLMNELVYSQLHHHHHH |  | TPWT and TPSN have similar activity to each other and to the commercially available proteinase at all substrate concentrations tested | 
